Laboratory results from article PMC10206079, “Bioinformatics of cyanophycin metabolism genes and characterization of promiscuous isoaspartyl dipeptidases that catalyze the final step of cyanophycin degradation” (Scientific Reports, 2023).
Blank lines part the entries; values can stand above or below the compound they belong to.

Assays:
[1] = molecular target: Leucothrix mucor DSM2157 isoaspartyl dipeptidase (LmIadA), purified enzyme as examined in solution (Leucothrix mucor DSM2157); test: not stated; purified enzyme in solution; shown in Supplementary Fig. S2; the method is not given
[2] = molecular target: Leucothrix mucor DSM2157 isoaspartyl dipeptidase (LmIadA), as crystallised (Leucothrix mucor DSM2157); test: crystal structure; LmIadA 20 mg/ml, sitting drop, 0.56 M NaH2PO4 and 1.04 M K2HPO4, 22 °C; 1.8 Å; molecular replacement with PDB 1YBQ
[3] = molecular target: Roseivivax halodurans DSM15395 isoaspartyl aminopeptidase (RhIaaA), heterodimer of subunits a and b (Roseivivax halodurans DSM15395); test: not stated; purified enzyme in solution; shown in Supplementary Fig. S2; the method is not given
[4] = molecular target: Roseivivax halodurans DSM15395 isoaspartyl aminopeptidase (RhIaaA), heterodimer of subunits a and b (Roseivivax halodurans DSM15395); test: crystal structure; RhIaaA 10 mg/ml, sitting drop, 0.1 M bis-tris propane pH 8.5, 0.2 M disodium malonate, 25% PEG3350, 4 °C; 2.7 Å; molecular replacement with PDB 2ZAL
[5] = molecular target: T1, LmIadA (Leucothrix mucor, UniProt A0AA82WPE9); test: coupled Asp release assay (aspartate aminotransferase / malate dehydrogenase, NADH at […] nm); assay type: biochemical; settings: 1 mM dipeptide, 500 nM enzyme, 100 mM HEPES pH 8.2, 20 mM KCl
T1 construct: C-terminal TEV site and 8xHis tag (cut for structural work only); expressed in E. coli BL21(DE3); homooctamer, zinc enzyme

Compound: Leucothrix mucor DSM2157 isoaspartyl dipeptidase (LmIadA), purified enzyme as examined in solution
- stoichiometry N [1]: 8

Compound: N=C(N)NCCC[C@H](NC(=O)C[C@H](N)C(=O)O)C(=O)O [β-Asp-Arg]
- coupled Asp release assay (aspartate aminotransferase / malate dehydrogenase, NA) [5]: it displayed no apparent preference towards β-Asp-Arg/Lys (Fig. 2a)

Compound: NCCCC[C@H](NC(=O)C[C@H](N)C(=O)O)C(=O)O [β-Asp-Lys]
- coupled Asp release assay (aspartate aminotransferase / malate dehydrogenase, NA) [5]: it displayed no apparent preference towards β-Asp-Arg/Lys (Fig. 2a)

Results, then the compound that gave them:

- stoichiometry N [2]: 8
Compound: Leucothrix mucor DSM2157 isoaspartyl dipeptidase (LmIadA), as crystallised (enzyme)

- stoichiometry N [3]: 2
- stoichiometry N [4]: 2
Compound: Roseivivax halodurans DSM15395 isoaspartyl aminopeptidase (RhIaaA), heterodimer of subunits a and b (complex)
